Primed or numbered codes have the meaning given here. Ends that are not written are not given here. FITC′ = not defined here
T1: TGFβ receptor I (TβR1), R&D, coated on ELISA plate
T1 chain: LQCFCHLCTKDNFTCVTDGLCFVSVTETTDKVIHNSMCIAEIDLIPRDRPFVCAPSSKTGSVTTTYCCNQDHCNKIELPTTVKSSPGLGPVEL


Legend:
Experiment in all cases: ELISA-like binding assay
[1] = target: T1, TGFβ receptor I (TβR1), R&D, coated on …
[2] = target: TβR3
[3] = target: IgG

Binder | Kd [1] [µM] | Kd [2] [µM] | Kd [3] [µM]
ECGLLPVGRPDRVWRLCK-{FITC′} (cysteine pairing not given here) [peptide-based TGFβ receptor II inhibitor (PTβR2I), ECGLLPVGRPDRVWRLCK-FITC] | 35.2 |  | 
ECGLLPVGRPDRVWRLCK-{FITC′} (cysteine pairing not given here) [PTβR2I] |  | 41.1 | 83
